Laboratory results as given in the RNAGym collection of RNA variant scans (doi:10.7554/elife.80360).

B1: Hairpin Ribozyme (parent)
chain: GUCCUCUUUCACGUGCGCGUGAAAGAGAGAAGUGAACCAGAGAAACACACGUUGUGGUAUAUUACCUGGUA

Variants of: B1
Assay: self-cleavage, relative activity (ratio to wild type); higher = more cleavage; co-transcriptional
GUCCUCUUUCACGUGCGCGUGAAAGUGAGAAGUGAACCAGAGAAACAAACGUUGUGGUAUAUUACCUGGUA [A26U C48A] showed a self-cleavage of 0.153. In the case of GUCCUCUUUCACGUGCGCGUGAAAGUGAGAAGUGAACCAGAGAAACACACGUUGUGGUAUAUUACGUGGUA [A26U C66G], the self-cleavage is reported as 0.16. GUCCUCUUUCACGUGCGCGUGAAAGUAAGAAGUGAACCAGAGAAACACACGUUGUGGUAUAUUACCUGGUA [A26U G27A] showed a self-cleavage of 0.228. Variant GUCCUCUUUCACGUGCGCGUGAAAGUGACAAGUGAACCAGAGAAACACACGUUGUGGUAUAUUACCUGGUA [A26U G29C] has a self-cleavage of 0.135. Work on GUCCUCUUUCACGUGCGCGUGAAAGUGAUAAGUGAACCAGAGAAACACACGUUGUGGUAUAUUACCUGGUA [A26U G29U] yielded a self-cleavage of 0.151. GUCCUCUUUCACGUGCGCGUGAAAGUGAGAAGUAAACCAGAGAAACACACGUUGUGGUAUAUUACCUGGUA [A26U G34A] gave a self-cleavage of 0.954. Work on GUCCUCUUUCACGUGCGCGUGAAAGUGAGAAGUCAACCAGAGAAACACACGUUGUGGUAUAUUACCUGGUA [A26U G34C] yielded a self-cleavage of 1.51. For GUCCUCUUUCACGUGCGCGUGAAAGUGAGAAGUGAACCAAAGAAACACACGUUGUGGUAUAUUACCUGGUA [A26U G40A], the self-cleavage was 0.175. Work on GUCCUCUUUCACGUGCGCGUGAAAGUGAGAAGUGAACCAUAGAAACACACGUUGUGGUAUAUUACCUGGUA [A26U G40U] yielded a self-cleavage of 0.131. GUCCUCUUUCACGUGCGCGUGAAAGUGAGAAGUGAACCAGAAAAACACACGUUGUGGUAUAUUACCUGGUA [A26U G42A] gave a self-cleavage of 0.153. In the case of GUCCUCUUUCACGUGCGCGUGAAAGUGAGAAGUGAACCAGAGAAACACACGUUUUGGUAUAUUACCUGGUA [A26U G54U], the self-cleavage is reported as 0.34. In the case of GUCCUCUUUCACGUGCGCGUGAAAGUGAGAAGUGAACCAGAGAAACACACGUUGUCGUAUAUUACCUGGUA [A26U G56C], the self-cleavage is reported as 0.135. GUCCUCUUUCACGUGCGCGUGAAAGUGAGAAGUGAACCAGAGAAACACACGUUGUGUUAUAUUACCUGGUA [A26U G57U] gave a self-cleavage of 0.143. Variant GUCCUCUUUCACGUGCGCGUGAAAGUGAGAAGUGAACCAGAGAAACACACGUUGUGGUAUAUUACCUCGUA [A26U G68C] has a self-cleavage of 0.103. GUCCUCUUUCACGUGCGCGUGAAAGUGAGAAGUGAACCAGAGAAACACACGUUGUGGUAUAUUACCUUGUA [A26U G68U] showed a self-cleavage of 0.207. For GUCCUCUUUCACGUGCGCGUGAAAGUGAGAAGUGAACCAGAGAAACACACGUUGUGGUAUAUUACCUGUUA [A26U G69U], the self-cleavage was 0.225. GUCCUCUUUCACGUGCGCGUGAAAGUGAGAAGUGAACCAGAGAAACACACGAUGUGGUAUAUUACCUGGUA [A26U U52A] gave a self-cleavage of 0.788. In the case of GUCCUCUUUCACGUGCGCGUGAAAGUGAGAAGUGAACCAGAGAAACACACGUAGUGGUAUAUUACCUGGUA [A26U U53A], the self-cleavage is reported as 0.474. GUCCUCUUUCACGUGCGCGUGAAAGUGAGAAGUGAACCAGAGAAACACACGUUGUGGAAUAUUACCUGGUA [A26U U58A] showed a self-cleavage of 0.391. Work on GUCCUCUUUCACGUGCGCGUGAAAGUGAGAAGUGAACCAGAGAAACACACGUUGUGGUAUAUCACCUGGUA [A26U U63C] yielded a self-cleavage of 0.199. In the case of GUCCUCUUUCACGUGCGCGUGAAAGUGAGAAGUGAACCAGAGAAACACACGUUGUGGUAUAUUACCAGGUA [A26U U67A], the self-cleavage is reported as 0.196. With GUCCUCUUUCACGUGCGCGUGAAAGUGAGAAGUGAACCAGAGAAACACACGUUGUGGUAUAUUACCUGGCA [A26U U70C] the self-cleavage was 0.721. For GUCCUCUUUCACGUGCGCGUGAAAGAAAGAAGUGAACCAGAGAAACACACGUUGUGGUAUAUUACCUGGUA [G27A], the self-cleavage was 0.454. In the case of GUCCUCUUUCACGUGCGCGUGAAAGAACGAAGUGAACCAGAGAAACACACGUUGUGGUAUAUUACCUGGUA [G27A A28C], the self-cleavage is reported as 0.295. With GUCCUCUUUCACGUGCGCGUGAAAGAAGGAAGUGAACCAGAGAAACACACGUUGUGGUAUAUUACCUGGUA [G27A A28G] the self-cleavage was 0.36. For GUCCUCUUUCACGUGCGCGUGAAAGAAAGACGUGAACCAGAGAAACACACGUUGUGGUAUAUUACCUGGUA [G27A A31C], the self-cleavage was 0.193. Variant GUCCUCUUUCACGUGCGCGUGAAAGAAAGAAGUGCACCAGAGAAACACACGUUGUGGUAUAUUACCUGGUA [G27A A35C] has a self-cleavage of 0.485. GUCCUCUUUCACGUGCGCGUGAAAGAAAGAAGUGACCCAGAGAAACACACGUUGUGGUAUAUUACCUGGUA [G27A A36C] showed a self-cleavage of 0.253. Variant GUCCUCUUUCACGUGCGCGUGAAAGAAAGAAGUGAGCCAGAGAAACACACGUUGUGGUAUAUUACCUGGUA [G27A A36G] has a self-cleavage of 0.42. For GUCCUCUUUCACGUGCGCGUGAAAGAAAGAAGUGAACCGGAGAAACACACGUUGUGGUAUAUUACCUGGUA [G27A A39G], the self-cleavage was 0.121. In the case of GUCCUCUUUCACGUGCGCGUGAAAGAAAGAAGUGAACCUGAGAAACACACGUUGUGGUAUAUUACCUGGUA [G27A A39U], the self-cleavage is reported as 0.166. For GUCCUCUUUCACGUGCGCGUGAAAGAAAGAAGUGAACCAGAGGAACACACGUUGUGGUAUAUUACCUGGUA [G27A A43G], the self-cleavage was 0.0988. Variant GUCCUCUUUCACGUGCGCGUGAAAGAAAGAAGUGAACCAGAGAACCACACGUUGUGGUAUAUUACCUGGUA [G27A A45C] has a self-cleavage of 0.186. Variant GUCCUCUUUCACGUGCGCGUGAAAGAAAGAAGUGAACCAGAGAAGCACACGUUGUGGUAUAUUACCUGGUA [G27A A45G] has a self-cleavage of 0.196. GUCCUCUUUCACGUGCGCGUGAAAGAAAGAAGUGAACCAGAGAAACGCACGUUGUGGUAUAUUACCUGGUA [G27A A47G] gave a self-cleavage of 0.129. GUCCUCUUUCACGUGCGCGUGAAAGAAAGAAGUGAACCAGAGAAACACACGUUGUGGUAUGUUACCUGGUA [G27A A61G] gave a self-cleavage of 0.114. With GUCCUCUUUCACGUGCGCGUGAAAGAAAGAAGUGAACCAGAGAAACACACGUUGUGGUAUAUUGCCUGGUA [G27A A64G] the self-cleavage was 0.303. For GUCCUCUUUCACGUGCGCGUGAAAGAAAGAAGUGAACCAGAGAAACACACGUUGUGGUAUAUUACCUGGUC [G27A A71C], the self-cleavage was 0.95.
